From the nanobody polyreactivity screen of Harvey et al. (2022) come the findings set out here.

The data set in a line: yeast display, Sf9 membrane polyspecificity reagent, FACS + sequencing; frameworks hold sequencing errors. Put shortly:
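Nanobodies came from a synthetic yeast display library in Saccharomyces cerevisiae BJ5465, induced with galactose for 36–48 hours and stained for 1 hour at 4 °C with 10% biotinylated, detergent-solubilized Sf9 membrane reagent. Cells were enriched on streptavidin microbeads and then FACS-sorted, with low and high (top ~1%) gates set on anti-HA fluorescence for expression and streptavidin fluorescence for reagent binding. Each polyreactivity label reflects the gate a clone came from. Genes were amplified by colony PCR, sequenced by MiSeq 2 × 250 and filtered by CDR length.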
“QVQLVESGGGLVQAGGSLRLSCAASGFTFPHYMGWYRQAPGKERELVAAINVSGGSTSYADSVKGRFTISRDNAKNTVYLQMNSLKPEDTAVYYCAKDLRFRLFSYPSDYWGQATQVTVSS”: the “polyreactivity (PSR sort gate)” value is on record as “low polyreactivity”.
Turning to “QVQLVESGGGLVQAGGSLRFSCAAPGTIFPRYAMGWYRQAPGKERELVAAISRSGGSTYYADSVKGRFTISRDNAKNTVYLQMNSLKPEDTAVYYCATDKVSHRRYDYWGQGTQVTVSS”, the “polyreactivity (PSR sort gate)” value was “high polyreactivity”.
Next, “QVQRVETGGGLVQARGSLRLSCAASGRIFACYTMGWFRQAPGKERELDAAISWNGGRTYYADSVKGRFTISRDNAKNTVYLQMNSLKPEDTAVYYCAAGKTPQKYGGFNYWGQGTQVTVSS”: “high polyreactivity”; “QVQLVESGGGLVQAGGSLRLSCGASGSIFVNKAMGWYRPAPGKERELVAAISSRSSRTFYADSVKGRFTISRDHAKNTVYLKMNILKPEDTEVYSCAVKKRAPDGDYWGQGTQVTVSS”: “high polyreactivity”; “QVQLVESGGGLVQAGGSLRLSCAASGSTFDYYAMGWYRQAPGKERELVAAISSGGSTNYADSVKGRFTISRDNAKNTVYLQMNSLKPEDTAVYYCAAVALWDYKFFYYLLYDYWGQGTQVTVSS”: “low polyreactivity”.
As for “QVQLVESGGGLVQAGGSLRLSCAASGRIFYWYGMGWYRQAPGKERELVAGITYSASRTYYADSVKGRFTISRDNVKNTVYLQMNCMKPEVTAVYYCAAGRYHRDDGYDYWGQGTQVTVSS”, the “polyreactivity (PSR sort gate)” value was “low polyreactivity”.
Turning to “QVQLVESGGGLVQAGGSLRLSCAASGSIFAYYAMGWSRQAPGKERELVASIDWSGDLYVRDSVKGRFTISRDNAKNTVYLQMNSLKPEDTAVYYCAADVGFGVVFYDYWGQGTQVTVSS”, the “polyreactivity (PSR sort gate)” value is listed as “low polyreactivity”.
As to “QVQLVESGVGLVQAGGSLRLICAASGRIFANYAMGWYRQAPGKERELVAAITGSGGTTYYADSVKGRFTISRDNAKNSVYLEMNSLKPEDTAVYYCATPPPVVWQRWYREYDYWGQGTQVTVSS”, the “polyreactivity (PSR sort gate)” value is “low polyreactivity”.
As to “QVQLVESGGGLVQAGGSLRLSCAASGFTFNKNAMGWYRQEPRKERELVAAISSSVGSTRYADSVKGRFTISRDNAKNTVYLQRNSLKPEDTAVYYCAVYVTPHSGWWLYDYWGQGTQVTVSS”, the “polyreactivity (PSR sort gate)” value was “high polyreactivity”.
In the case of “QVQLVESGGGLVQAGGSLRLSCAASGFTFFTYTMGWYRQAPGKERELVAAISRDGARTNYADSVKGRFTISRDNAKNTVYLQMNSLKPEDTAVYYCAAPTSHLYTEKYDYWGQGTQVTVSS”, the “polyreactivity (PSR sort gate)” value is listed as “high polyreactivity”.
On to “QVQLVESGGGLVQAGGSLRLSCAASGSTLYYNAMGWYRQAPGKERELVAAISWSGGSTYYADSVKGRFTISRDNAKNTVYLQMNSLKPEDTAVYYCAADVNYYQHRLYYWGQGTQVTVSS”, for which the “polyreactivity (PSR sort gate)” value is “low polyreactivity”.
With “QVQLVESGGGLVQARGSLRLSCAASGFTFERYTMGWYRQAPGKERELVATISRRSGRTSYADSVKGRFTISRDNEMNSVYLQMNSLKPEDTAVYYCAVDDAYPDRYDYWGQGPQVTVSS”, the “polyreactivity (PSR sort gate)” value is “high polyreactivity”.
Regarding “QVQLVESGGGLVQAGGSLRLSCAASGLTFASYAMGWYRQAPGKERELVARISRSGGSTYYADSVKGRFTISRDNAKNTVYLQMKSLKPEDTAVYYCAADYIFRRYPVGGIYDYDYWGQGTQVSVSS”, the “polyreactivity (PSR sort gate)” value was “high polyreactivity”.
In the case of “QVQLVESGGGLVQAGGSLRLSCAASGSIFLVNAMGWYRQAPGKERELVAAINSGGSTYYADSVKGRFTISRDNAKNTVYLQMNSLKPEDTAVYYCAADFWLKVWQDTDYDYDYWGQGTQVTVSS”, the “polyreactivity (PSR sort gate)” value is listed as “low polyreactivity”.
In the case of “QVQLEESGGGLVQAGGSLRLSCAASGFTFAYYAMGWYSQAPGKERELVAAISRSGGRTNYADSVKGRFTISRDNAKNTVYLQMNSLKPEETAVYYCNKQQTPRYWWSPYGGYDYWGQGTQGTVSS”, the “polyreactivity (PSR sort gate)” value is recorded as “high polyreactivity”.
Next, “QVQLVESGGGLVQAGGSLRLSCAASGSTFVLDDMGWYRQAPGKERELDAAISYSGDSTNYAASVKGRFTISRDNAKNTVYLQMNSLKPEDTAVYYCNARQRTYYRTHRIRHKGNGYWGQGTQVTVSS”: “low polyreactivity”; “QVQLVESGGGLVQAGGSLRLSCAASGNIFYRYPMGWYRQAPGKEREMVAAISRSGGSTYYADSVKGRFTISRDNAKNSVYLQRNSLKPEDTAVYYCAAEYQGFWWYGDYDYWGQGTQVTVSS”: “high polyreactivity”.
To “QVQLVESGGGLVQAGGSLRLSCAASGFAFSYYAMGWYRQATGKEREFVASIDWSGGSTYYADSVKGRFTISRDNAKNTVYLQLNSLKPEDTAVYYCAAELDYFPGYDYWGQGTQVTVSS” belongs “low polyreactivity”; to “QVQLVESGGGLVQAGGSLRLSCAASGGTFGGNAMGWYRQAPGKERELVAAITDIGGSTYYADSVKGRFTISRDNAKNTVYLQMNSLKPEDTAVYYCAKDNVEVVGQWSSDEYDYWGQGTQVTVSS”, “low polyreactivity”.
Next, “QVQLEESGGGLVQAGGSIRLSCAASGSTLVGNAMGWYRQAPGKERELVATIDLSDDITYYADSVKGRFTSSRDNAKNTFYLQMNSLKPEDTAVYYCSAEYYLYSTYTVSYGKYDYWGQGTQGTVSS”: “high polyreactivity”.
Consider “QVQLVESGGGLVQAGGSLRLICAASGRTFNRYAMGWYRTAPRTERELVAVINSASSTNYADSVKGRFTISRDNAKNTVYLQMYSLKPEDTAVYYCNADGYRWYWYTGPMDYWGQGTKVTVSS”, for which the “polyreactivity (PSR sort gate)” value was “high polyreactivity”.
In the case of “QVQLVESGGGLVQAGGSLRLSCAASGRILSYYAMGWYRQAPGKERELVATISASGGSTFYADSVKGRFTISRDNAKNTVYLQMNSLKPEDTAVYYCNAYWGRRVQRDYWGQGTQVTVSS”, the “polyreactivity (PSR sort gate)” value is “high polyreactivity”.
As for “QVQLVESGGGLVQAGGSLRLSCSASGSIFKYYTMGWYRQAPGKERELVASINGGGSTNYADSVKGRFTISRDNAKNTVYLQMNSLKPEDTAVYYCNARYWWQDGYWGQGTQLTVSS”, the “polyreactivity (PSR sort gate)” value is given as “high polyreactivity”.
Turning to “QVQLVESGGGLVQAGGSLSLSCAAYGSTFDPNDMGWYRQAPGKERELVAVIDSGDGTTYYADSVKGRFTISRDNAKNTVYLQMNRLKPEDTAVYYCAVDESTSYYDDHEDYWGQGTQVTVSS”, the “polyreactivity (PSR sort gate)” value is reported as “low polyreactivity”.
Take “QVQLVESGGGLVQAGGSLRLSCAASARIFYAYTMGWYRQAPGKERELVAAISGSGSTYYADSVKGRFTISRDNAMNTFFLQMNSLKPEDTAVYYCAADVTGGRKYDYWGQGTEVTVSS”: the “polyreactivity (PSR sort gate)” value is reported as “low polyreactivity”.
For the sequence “QVQLVESGGGLVQAGGSLRLSCAASGITFWPYALGWYRPAPGKERELVAAIRASVGRTYYADSVKGRFTISRDNAKNTVYLQMNSLKPEDTAVYYCNAYGRYGKFRVEYDYWGQGTQVTVSS”, the “polyreactivity (PSR sort gate)” value is listed as “low polyreactivity”.
Next, “QVQLVESGGGLVQAGGSLRLSCAAYGSIFYFNAMGWYRQAPGKERELVAAITYNGGSTRYADSVKGRFTISRDNAKNTVYLQMNSLKPEDTAVYYCAARAKYGPEDGYWGQGTQVTVSS”: “high polyreactivity”.
To “QVQLVESGGGLVQAGGSLRLSCAASGRTFPAYTMGWYRQAPGKERELVAAISRVGTTYYADSVKGRFTISRDNAKNTGYIQMNSLKPEDTAFYYCNARTWSWSFDYWGQGTLVTVSS” belongs “high polyreactivity”; to “QVQLVESGGGLVQAGGSLRLSCAASGFTFKAYAMGWYRQAPGKERELVAAITRSGGRTYYADSVKGRFTISRDNAKNTVYLQMNSLKPEDTAVYYCARDYTRYAYDHWGQGTQVTVSS”, “high polyreactivity”.
As to “QVQLVESGGGLVQAGGSHRLSCAASGITFGSYVMGWYRQAPGKERELVAAISRSGGRTYYADSVKGRFTISRDNAKNTVYLQMNSLKPEDTAVYYCAARYDSGNYVYWGQGTQLTVSS”, the “polyreactivity (PSR sort gate)” value was “high polyreactivity”.
